From the supplement of paper PMC10567573
± gives the standard deviation.

Experiment: protein stability index of a GFP-peptide fusion (GPS, HEK-293T) (PSI 1-6); higher = more stable
[1] = treatment: DMSO, c terminus: a fixed tail appended
[2] = treatment: MLN4924 1 uM, 8 h, c terminus: a fixed tail appended
[3] = treatment: DMSO, c terminus: native
[4] = treatment: MLN4924 1 uM, 8 h, c terminus: native
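Further: 24-mer peptide tiles fused after GFP, lentivirally expressed, FACS-sorted into six equal bins by GFP/DsRed ratio, decoded by Illumina sequencing, PSI is the read-weighted mean bin number.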

Sequence | protein stability index [1] | protein stability index [2] | protein stability index [3] | protein stability index [4]
RYEQGRFWPHLKASNWSTTGFGQG [HDAC6] | 2.54 ± 0.28 | 2.6 ± 0.12 | – | –
HADILAAVETRLSLLNMTFMKYVD [FBXO28] | 2.84 ± 0.69 | 2.75 ± 0.65 | – | –
NSEEEEDDDDEEEEVSEVESFILD [ANKRD17] | 5.06 ± 0.33 | 4.94 ± 0.23 | – | –
LNCPFCGARLGGFNFVSTPKCSCG [RNF180] | 2.25 ± 0.51 | 3.28 ± 0.38 | – | –
FNEQTWEVSQQDPSHGEVGEHKDR [ZSCAN9] | 5.38 ± 0.26 | 5.35 ± 0.17 | – | –
HGEEQRITIEPGTSYRLQGLKPNS [PTPRD] | 4.4 ± 0.18 | 4.67 ± 0.29 | – | –
LIFHRHPVAQSTDAIRGKVGYTRG [SPSB1] | 2.33 ± 0.23 | 2.41 ± 0.21 | – | –
TQEFLSACKSLQTRQNGIQTNKPA [STX5] | 4.18 ± 0.21 | 4.14 ± 0.23 | – | –
KKLTGGANWQPKVAPATWSAGVPP [SNAP91] | 3.27 ± 0.18 | 3.34 ± 0.14 | – | –
SPASHVDVDLTIHGRHIDCPATWG [FOXJ1] | 3.14 ± 0.2 | 3.28 ± 0.19 | – | –
EVCYEDLGCFSDTEPWGGTAIRPL [PNLIPRP1] | 3.18 ± 0.19 | 3.54 ± 0.66 | – | –
ELQLEQSRAANQEQRANDLEQIME [CEP70] | 5.1 ± 0.15 | 5.16 ± 0.092 | – | –
VISQLEQGTELWVAERGTTQGCHP [ZNF8] | 3.96 ± 0.29 | 3.99 ± 0.45 | – | –
LESIPSLSQSPEPGRRGDPDTAPP [RTN2] | 5.49 ± 0.12 | 5.535 ± 0.045 | – | –
CSDSDKKCHLWTAMDLGFFVVMGV [CLCN6] | 2.95 ± 0.63 | 2.97 ± 0.5 | – | –
KIRRGQFCIPEHISPKARCLIRSL [TRIB1] | 2.29 ± 0.48 | 2.29 ± 0.4 | – | –
LFLLLGHGASPGLRDGGGLTPLEL [ANKRD9] | 2.29 ± 0.32 | 2.36 ± 0.59 | – | –
NSAMPFKILYDDGKMVEEVDGRAT [PTPRD] | 4.69 ± 0.32 | 4.62 ± 0.13 | – | –
GRGLKSHAYIHSVQFSHHVFLNLH [USP39] | 2.84 ± 0.45 | 2.62 ± 0.65 | – | –
EAVESTLQTPLDIRLKESINCQLS [TRIM14] | 4.38 ± 0.44 | 4.34 ± 0.36 | – | –
GERPEEGVAGGLNRNQGLNRLMLA [TCF25] | 3.88 ± 0.44 | 4.02 ± 0.47 | – | –
GANKEVQELLERGLLQLDHRGLRC [RSAD1] | 3.39 ± 0.12 | 3.66 ± 0.31 | – | –

Sequence | protein stability index [1] | protein stability index [2] | protein stability index [3] | protein stability index [4]
KEACDQHGPDLYPKFKKWCDDYFF [CPOX] | 2.31 ± 0.27 | 2.58 ± 0.32 | – | –
QACMGGRCLHMDQLQDFNIPQAGG [ADAMTS4] | 3.38 ± 0.15 | 3.21 ± 0.09 | – | –
NGAKELWFFLQSELKKLKNLEGNE [FUT8] | 2.45 ± 0.47 | 2.48 ± 0.33 | – | –
NTKRAIHTLAVMNDRLYAIGGNHL [KLHL14] | 2.2 ± 0.19 | 2.3 ± 0.14 | – | –
PVRAYDFLLKFLLVGDSDVGKGEI [RAB40B] | 2.28 ± 0.3 | 2.62 ± 0.58 | – | –
GCGADSKKKRPPQPPEESQPPQSQ [PLK2] | 5.52 ± 0.35 | 5.53 ± 0.18 | – | –
ERSDLEEDNEREGTENGAIDAVPV [ZC3H15] | 5.5 ± 0.19 | 5.5 ± 0.33 | – | –
QKKQKLEQKAAGSASAKRVWNMTA [FATE1] | 4.01 ± 0.15 | 3.93 ± 0.37 | – | –
MAETSLLEAGASAASTAAALENLQ [TRIM39] | 4.59 ± 0.32 | 4.4 ± 0.29 | – | –
FVLDENDNAPAVLHPRPDWEHSAP [PCDHGC5] | 3.33 ± 0.22 | 3.62 ± 0.31 | – | –
EGGGTSLHVACELARPECLFLLLG [ANKRD9] | 2.03 ± 0.091 | 2.06 ± 0.67 | – | –
IEKFIREPSLKATMGLAGRARVKE [ALG2] | 3.6 ± 0.18 | 3.62 ± 0.33 | – | –
PEDEVIVNQYVIRPGPSASAASSA [RNF208] | 4.61 ± 0.12 | 4.62 ± 0.16 | – | –
ILTLPEMMRMFSENLAHHLEIDSG [TRIM15] | 2.44 ± 0.3 | 2.44 ± 0.31 | – | –
QIKTLLALSCHEQEMVVSSLVIGA [SLC2A12] | 3.78 ± 0.47 | 3.1 ± 0.55 | – | –
IFQIGVLGFGPTYVVLAYTLPPAS [SOAT1] | 2.97 ± 0.27 | 3.23 ± 0.68 | – | –
PEIAQNFSAPDPPRPRPVSLSLRL [SMTNL2] | 2.91 ± 0.27 | 3.04 ± 0.22 | – | –
SVPFSFDPNTAAGWLSVSDDLTSV [TRIM35] | 3.42 ± 0.25 | 3.52 ± 0.23 | – | –
DIEDVFYKYGAIRDIDLKNRRGGP [SRSF1] | 3.32 ± 0.48 | 3.39 ± 0.17 | – | –
GCGYGCQLHHVVYCFMIAYGTQRT [FUT8] | 3.19 ± 0.45 | 3.06 ± 0.57 | – | –
LASIFQLAMWTTALLHQAETLQPS [TMEM175] | 3.13 ± 0.29 | 3.13 ± 0.75 | – | –
SRLGQGIGPIHLNEIQCTGNEKSI [LOXL2] | 4.42 ± 0.32 | 4.09 ± 0.18 | – | –

Sequence | protein stability index [1] | protein stability index [2] | protein stability index [3] | protein stability index [4]
KEMSKVWNDLRPKLSCLFAGPHST [SNX8] | 2.63 ± 0.7 | 2.79 ± 0.59 | – | –
ASKTVFFFFSSPGNNNGTSIEDGQ [BTBD1] | 2.55 ± 1.3 | 2.29 ± 0.74 | – | –
TLEALGYKGPLLEEQALTKAAEGG [FAM98B] | 4.61 ± 0.23 | 4.66 ± 0.083 | – | –
VCTVQFLISKGANVNRTTANNDHT [ANKRD17] | 2.28 ± 0.24 | 2.46 ± 0.4 | – | –
VGAAGSARQELLGDRPRWQRLLGE [ANKRD9] | 3.54 ± 0.27 | 3.31 ± 0.15 | – | –
LINSNVSMVDLTSVTLEDVTPKKS [FAN1] | 3.34 ± 0.25 | 3.55 ± 0.17 | – | –
AAGMRFPLPEAIDPDVGVNSLQSY [PCDHGA10] | 3.9 ± 0.2 | 4.12 ± 0.31 | – | –
DAGEESRVQVLKNEVRRGSPVLLG [TIAF1] | 4.33 ± 0.092 | 4.55 ± 0.24 | – | –
FTQPLLPAFTVWCGSFQVTTGLQV [FSD1] | 3 ± 0.12 | 3.03 ± 0.5 | – | –
TWLPSRAEWLLAVRSIQPEEKERI [AASDHPPT] | 3.3 ± 0.31 | 3.29 ± 0.2 | – | –
MEPGDIIGVAGNHWDGYSKGVNRK [FUT8] | 4.4 ± 0.22 | 4.6 ± 0.35 | – | –
LLESPQLATLAEDVTAALAKQGL [MAP2] | – | – | 4.66 ± 0.21 | 4.53 ± 0.2
NSTGSGRGKKLMVLTEPILIETYT [TPRG1] | 2.57 ± 0.18 | 2.75 ± 0.24 | – | –
KEQLSNDRETQEGKPPTAHLDRTS [ELOA2] | 5.56 ± 0.32 | 5.59 ± 0.16 | – | –
SFLNVTKSSLIWSYPAGSLTFPVR [TRIM43] | 1.89 ± 0.045 | 2.17 ± 0.16 | – | –
VVLLQGAELLLAARLLGALAARSG [TSPAN10] | 3.52 ± 0.57 | 2.76 ± 0.59 | – | –
LNIYKTLKTHLIEKGILQPTLKV [CDS1] | – | – | 2.71 ± 0.94 | 2.86 ± 0.8
QKKDCVPLMKPHRPWADTCSSSGK [HESX1] | 3.49 ± 0.52 | 3.67 ± 0.53 | – | –
TDNQVRLRKRKEIREDRDRARLDS [DLC1] | 5.18 ± 0.39 | 5.07 ± 0.3 | – | –
FIFTFVKKKKIGFYFEVCGMMVES [PCDHGA10] | 3.34 ± 0.57 | – | – | –
AGPNGTLFVADAYKGLFEVNPWKR [APMAP] | 2.39 ± 0.28 | 2.72 ± 0.31 | – | –
